Reference: PMC6234862, “The Structure of the Human Respiratory Syncytial Virus M2-1 Protein Bound to the Interaction Domain of the Phosphoprotein P Defines the Orientation of the Complex” (mBio, 2018)
Where no end group is shown, it is not given here. fluorescein = fluorescein label at the peptide N-terminus

B1: Human respiratory syncytial virus (HRSV) M2-1 protein, full-length native tetramer (natural protein)
chain: MSRRNPCKFEIRGHCLNGKRCHFSHNYFEWPPHALLVRQNFMLNRILKSMDKSIDTLSEISGAAELDRTEEYALGVVGVLESYIGSINNITKQSACVAMSKLLTELNSDDIKKLRDNEELNSPKIRVYNTVISYIESNRKNNKQTIHLLKRLPADVLKKTIKNTLDIHKSITINNPKESTVSDTNDHAKNNDTT
notes: HRSV M2-1 protein, strain A2, M2-1 ORF; 194 amino acids; Also used here as the wild-type M2-1 of the minigenome rows, where it was expressed from a plasmid in BSRT7 cells; also called native M2-1; tetrameric M2-1; source: E. coli BL21(DE3) Gold, purified (glutathione Sepharose, on-column PreScission cleavage, SP Sepharose; Superdex 75 for crystallization); not shown: GST, N-terminal, cleaved
B5: P90-110 peptide, unlabeled (residues 90 to 110 of HRSV P) (peptide, UniProt P03421 90-110, looked up)
peptide: DPTPSDNPFSKLYKETIETFD
notes: HRSV phosphoprotein P, strain A2, residues 90-110; residues 97 to 109 seen in the density; also called P peptide; source: synthetic peptide (ProteoGenix)

Legend:
[1] = molecular target: GST-P1-241 (full-length HRSV phosphoprotein P fused to GST) (human respiratory syncytial virus, strain A2) (UniProt P03421)
M2-1 = molecular target: T1, M2-1 (Human respiratory syncytial virus …, UniProt P04545 1-194); assay: fluorescence anisotropy competition; displaces 10 nM fluorescein-P90-110 peptide from 1 uM M2-1; 20 mM Tris-Cl pH 7.5, 150 mM NaCl, 0.01% Triton X-100, room temperature, 30 min; conditions: protein: recombinant; tags: GST removed by PreScission protease; chain copies: 4; single strand
T1 sequence: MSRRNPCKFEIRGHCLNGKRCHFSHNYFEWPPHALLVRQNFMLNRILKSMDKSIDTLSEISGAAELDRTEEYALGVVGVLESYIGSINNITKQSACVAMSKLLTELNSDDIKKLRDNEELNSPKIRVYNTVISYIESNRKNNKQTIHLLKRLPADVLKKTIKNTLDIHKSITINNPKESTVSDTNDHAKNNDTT

[2] = molecular target: T2, GST-P1-241 (full-length HRSV phosphoprotein P fused to GST) (human respiratory syncytial virus, …, UniProt P03421 1-241); assay: pull-down; GST-P constructs from clarified E. coli lysates held on glutathione Sepharose 4B and washed; 1 mg purified M2-1 added, room temperature, 5 min; 25 mM Tris/HCl pH 7.4, 150 mM NaCl, 1 mM DTT; SDS-PAGE, Coomassie staining; conditions: both partners purified
T2 construct: pGEX-6P-2 construct; Also used here as the wild-type P of the minigenome rows, where P was expressed from a plasmid in BSRT7 cells (no GST told there); also called WT P; not shown: GST, N-terminal, kept

[3] = molecular target: the molecule itself; assay: crystal structure; M2-1 tetramer mixed with P90-110 in a 1:1 molar ratio, concentrated to 8 mg/ml; sitting drop vapor diffusion at 18°C; 0.2 M trimethylamine N-oxide dihydrate, 0.1 M Tris-HCl pH 8.5, 2% PEG MME 2000; 2.4 Å
[4] = molecular target: B5; assay: as above; conditions: both partners purified
[5] = molecular target: B1; assay: fluorescence polarisation; fluorescence anisotropy, direct binding; 10 nM fluorescein-labeled P90-110, M2-1 0.1 nM to 300 μM; 20 mM Tris-Cl pH 7.5, 150 mM NaCl, 0.01% Triton X-100; 30 min at room temperature; 384-well; triplicate; apparent; conditions: both partners purified
[6] = molecular target: B1; assay: pull-down; GST-P constructs from clarified E. coli lysates held on glutathione Sepharose 4B and washed; 1 mg purified M2-1 added, room temperature, 5 min; 25 mM Tris/HCl pH 7.4, 150 mM NaCl, 1 mM DTT; SDS-PAGE, Coomassie staining; conditions: both partners purified
[7] = molecular target: B1; assay: crystal structure; M2-1 tetramer mixed with P90-110 in a 1:1 molar ratio, concentrated to 8 mg/ml; sitting drop vapor diffusion at 18°C; 0.2 M trimethylamine N-oxide dihydrate, 0.1 M Tris-HCl pH 8.5, 2% PEG MME 2000; 2.4 Å; conditions: both partners purified

HRSV M2-1 R126E (from UniProt P04545 1-194) (natural protein)
HRSV minigenome assay, eGFP fluorescence in BSRT7 cells relative to WT M2-1 [1]: 30 % of WT M2-1

HRSV M2-1 L148A (from UniProt P04545 1-194) (natural protein)
HRSV minigenome assay, eGFP fluorescence in BSRT7 cells relative to WT M2-1 [1]: 30 % of WT M2-1

AAAAAAAAAAAAA (ssRNA) [A13 (poly(A) RNA 13-mer)]
IC50 (M2-1): 1.7 µM

B1
binding result [2]: binds
stoichiometry N [3]: 4
stoichiometry N [4]: 1

B2: Fluorescein-labeled P90-110 peptide (peptide, UniProt P03421 90-110, looked up)
peptide: fluorescein-DPTPSDNPFSKLYKETIETFD
notes: HRSV phosphoprotein P, residues 90-110; Strain A2 is stated for the unlabeled peptide; source: synthetic peptide (ProteoGenix)
Kd [5]: 7.5 µM

B3: GST-P90-110 (domain or fragment, UniProt P03421 90-110, looked up)
chain: DPTPSDNPFSKLYKETIETFD
notes: HRSV phosphoprotein P, strain A2, residues 90-110; pGEX-6P-2 construct; also called P90–110 (GST fusion); not shown: GST, N-terminal, kept
binding result [6]: binds

B4: GST-P90-160 (domain or fragment)
chain: DPTPSDNPFSKLYKETIETFDNNEEESSYSYEEINDQTNDNITARLDRIDEKLSEILGMLHTLVVASAGPT
notes: HRSV phosphoprotein P, strain A2, residues 90-160; pGEX-6P-2 construct; not shown: GST, N-terminal, kept
binding result [6]: binds

B5
binding result [7]: binds
